Source: the supplement of paper PMC12042874
± gives the uncertainty stated by the source.

Experiment: amyloid nucleation score (Sup35N fusion, yeast selection) (log enrichment); library NNK3; higher = more nucleation; inactive = no reads after selection
Method in brief: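 For the nucleation score, DiMSum gave the log enrichment of output over input reads, centred on the mode score of non-aggregating sequences. Psi-negative yeast expressing Sup35N fused to peptides of 20 random codons were induced with 100 μM copper sulfate for 24 hours and grown 7 days at 30°C on medium lacking adenine and uracil. Input and output plasmid inserts were Illumina-sequenced, and sequences with under 100 input reads were excluded.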

| Substance | amyloid nucleation score |
| --- | --- |
| IMKFDSRAYNGYMQMIRPGV | inactive |
| ANKYASRFVYSISDLSWTIW | inactive |
| IIYMMLYVKEGMSWTSLPDQ | inactive |
| GCFILLNWVMQGKLAYTSLI | inactive |
| LKQDVKTAVFFFGVD | 1.1 ± 0.15 |
| WLEDTSSTDF | 0.348 ± 0.22 |
| CEQDTCFIHISRYTTVNNTM | inactive |
| PYARRMWHGVLVRDIGLYTR | inactive |
| RRGNDRKRLWAVNLDTGNFL | inactive |
| RRSRFTFSYIIRSLCASRTF | inactive |
| TVYSRHIDRGYWIADGCSRV | inactive |
| VARSSQSISSMHMTMRYKCA | inactive |
| CGGGALLDICLPFICPVNGL | 0.843 ± 0.19 |
| TIQCMCFCSNRVLTIIVQLS | -0.61 ± 0.75 |
| WMMDEMLVFLTH | inactive |
| VNLITREHLKKGSMNNFIAN | inactive |
| SFFCN | inactive |
| LLVAYPHYAGFCTAVSSKSG | inactive |
| ITPWCFLVSCIRVSYAIVPT | inactive |
| LFLSDKLPTFSRLNKCMLGV | -1.31 ± 1.9 |
| NALYTSLYRLNLGFWAQMLP | inactive |
| YSGGCGWIMSRNSVRYSCIC | inactive |
| DVCTLSELSVFPSLSISQ | inactive |

| Substance | amyloid nucleation score |
| --- | --- |
| INVDGKNNPSRREKTISMGG | inactive |
| ICVCEQSTVVYTKELSTFGA | 0.012 ± 0.27 |
| YNSSTTVIDFTF | inactive |
| PWKCTWFMALEVFRMYLRSF | inactive |
| PVQRTLVRAVSESFR | 0.899 ± 0.13 |
| NNSSSMSLINKSTCCLDWSS | 2.02 ± 0.063 |
| IGRAIVHWYWFSSL | inactive |
| KNKPEKRR | inactive |
| GNSSII | inactive |
| VDETPSSHMSIPVMERVLCG | inactive |
| YCVFGRNCDNKAVVLIGGNP | inactive |
| TYGSVNCVSLMCSVVVLFAM | inactive |
| TTTFKLGISKSLDVSTRLRG | 0.31 ± 0.14 |
| YLMYSVESVRWTLIE | inactive |
| WFDNRGLSFPYVYLLREHGK | 1.13 ± 0.11 |
| QYEWLNYSNLVVYSIKYPEN | inactive |
| IQANSLLSRLLRLSGNCCWM | 0.127 ± 0.8 |
| MSCTDRYEIL | inactive |
| WRVSNKIIPIIRWQWMDPCL | inactive |
| VCLCNIRDMAG | inactive |
| SIIVTVQLWYVGV | 0.422 ± 0.36 |
| CRAVND | inactive |
| FVNVKFQTLCNYIWCTSPYE | 2.9 ± 0.06 |

| Substance | amyloid nucleation score |
| --- | --- |
| SGISCGLGLATGRKYGSGAV | inactive |
| TCGINYRGYEDPRPCRGTEI | inactive |
| YSDIVFILDLGYCAF | 1.3 ± 0.091 |
| NLSGIHIFLVSRLEWVLDNL | inactive |
| MKAYILMVDRLVVELVPHVA | -0.107 ± 0.35 |
| SERWGIESHNRNSNMRKTGW | inactive |
| CRYESVYLNVEILPVTVAVV | inactive |
| AQTYSMCFNITKHPYNSMCG | inactive |
| RKGNGMHKNSYSTARMYCGF | inactive |
| GVVVWYSGDWTECMVVNRCD | 0.78 ± 0.12 |
| FLQAAYSGSRVAKCVSESSK | inactive |
| ASNYYKCCCSNWLCCLMSDR | 2.91 ± 0.066 |
| IARSREI | inactive |
| GFFCIYWGHWGFSES | inactive |
| LVNELAQVVVCLGSRSTVLG | inactive |
| GYTRVRVGCYVTVRKFWSMT | -0.14 ± 1 |
| VFQRVNISVCINVVKFMSSM | 1.65 ± 0.069 |
| YWQPWVNLDSYRCGHNSQFP | inactive |
| SLVTRGLPVCRFRSDSDYSI | inactive |
| RQDLSHSFSDGRERQHWAKR | -0.165 ± 0.81 |
| FVASHLVVAKGVKASVRKFY | 1.31 ± 0.089 |
| RSTAPGTGSDIPFEDSLRQM | inactive |
| ILYICHINKGVGGQIGVMAV | inactive |

| Substance | amyloid nucleation score |
| --- | --- |
| FIIVPKWSCFLVSSMKFRVV | inactive |
| SPVIKRYCILM | inactive |
| KSFSR | inactive |
| RSTWFSFFRRTAHWKKALRP | inactive |
| SYYAHL | inactive |
| LWFMDFMQSSNSEYQPIVGL | inactive |
| ELLHKAF | inactive |
| SLSLSIIRAVDFWDMVRGLN | inactive |
| LLVTQGVYS | 1.17 ± 0.12 |
| FWLRNHFHSIAGICMFVGYW | inactive |
| RDNWSVNLDTKHDLSIAGKL | inactive |
| NYVGSSPGVGSRYTCLKSNV | inactive |
| EMTGTYEVCFMT | inactive |
| VACRVVGNSSVWVFRRHVEN | inactive |
| YNVRSFLTKVEWTYYFS | 0.391 ± 0.16 |
| SMANFTAETSDIRINFIVSM | 0.779 ± 0.14 |
| MYTISVKAMNGWYLSLKVGC | inactive |
| MSYEDTPCH | inactive |
| QRIEYA | inactive |
| RCVIMTPLAIREHDNDASCQ | inactive |
| DDCFIARAFLSLGLPELYLG | inactive |
| SNHIDAVNHDGHSHPYHTTR | inactive |
| HAVPVYD | -0.394 ± 1.9 |

| Substance | amyloid nucleation score |
| --- | --- |
| FLNVKIQNHWRPYPFSPEYA | 1.16 ± 0.092 |
| SQGGFRNMWR | inactive |
| GPIEPFSMLSM | -0.291 ± 0.7 |
| ALTWMRMYALCNIEVNHYST | 2.07 ± 0.066 |
| GFLGCRSETFWRVVVTKRKV | inactive |
| MPCNVKYSTVCFTA | inactive |
| MYNLNVLNE | inactive |
| CFLVTVSSGTASMQVLGRSG | 1.23 ± 0.14 |
| SFRDPHLTHSSVDCRTVYHI | inactive |
| LCSSLIM | inactive |
| ASSSQGRDYVCMSYNFIGGV | -0.551 ± 0.55 |
| YSIMFRVLVGT | inactive |
| CRRFELS | -1.04 ± 1.9 |
| IVSCTCDRMADLGST | inactive |
| VKTRTIRVSH | inactive |
| SFLAYYMFYM | inactive |
| NDNSSATRSHSGLATRGGLV | inactive |
| RELRF | inactive |
| YSSHVPSLHQLDQVSRRVQG | inactive |
| ARTGYNGYQFRSGRALEITG | inactive |
| LSSWFHFLSNTATRQKVWRS | inactive |
| RILFDAARRIRWTVMCTKSC | inactive |
| VVCLLALKIYDMLCRCQDVV | inactive |

| Substance | amyloid nucleation score |
| --- | --- |
| DSRKRKVRF | inactive |
| RLRQTATCIRFVFAGNVLAN | 0.018 ± 1.2 |
| GWNLTHRMSTGSKLLCPLRI | inactive |
| FLWLYQDCVV | inactive |
| VLLFC | inactive |
| PNHELYM | inactive |
| LYVFLLNECSWRAPGASI | inactive |
| RSTDTFWACCSDKTLSLWSA | inactive |
| RFTYGDRCMKMRMPNFETAH | inactive |
| LVYAKNMLFDNKDWCV | inactive |
| EWTVNMNSYLLVSVAYGCGS | inactive |
| SYYMTKLVFLCPLW | inactive |
| MMRNTDK | inactive |
| FNSMYRVELVHCCSHNKICD | 1.41 ± 0.1 |
| YSPAK | inactive |
| HYNSSSFRVGPCVSLGNHTQ | inactive |
| PRRMHMGHAVFDIMGTLRSK | 0.9 ± 0.15 |
| CEVGQCQGYVELLSYIHYNS | inactive |
| TRNMIMRRKSTLRHLVTEAD | inactive |
| HESKTMRKEEIMYTRWYKVL | inactive |
| NSGIFFLVMTSKLNAVLCLA | inactive |
| LPPFCGSGCLSGLLRSKTRR | 0.617 ± 0.19 |
| HFMFGYGCTRSGQTRSPGFN | 1.88 ± 0.11 |

| Substance | amyloid nucleation score |
| --- | --- |
| LDFCFLGHRWRSFSGSYRKS | inactive |
| LNNRA | inactive |
| LARWNVIWFFNGNCIFEESV | 1.31 ± 0.074 |
| GRFRLMNLFQTDSRINLWVR | inactive |
| ESWCM | inactive |
| NNSSLRTEVLCFDGISQFGG | inactive |
| LHHFSAIPH | inactive |
| YYWLLIGLLFRVLLMLVQGK | inactive |
| AFCNTIETDMNSAPVFLRAA | inactive |
| GVRHRLAVFQYMFTHVLWTM | inactive |
| RSAVISTLRYSW | -0.289 ± 0.41 |
| QHSGRWCGAPALGNLVAMSS | inactive |
| SFLSKGRSRSSFQWYQGHRA | -0.302 ± 1.1 |
| AEHHYAFAFTEF | inactive |
| MKVEVYPSTVFMRYRVNWVI | inactive |
| SMNRV | inactive |
| CCFHLFTYCKGKARYTLWSV | inactive |
| GLGWNWDWR | inactive |
| GLALGWHFTC | inactive |
| WSSWSRS | inactive |
| VRLNALIHDIVMMVWGTMHG | inactive |
| RYLRKEDDWFIDRAVD | inactive |
